Patent publication US7083932 (EUROSCREEN S A, dated 2006)

Target: orphan receptor ORL1 (Opioid Receptor-Like 1) stably expressed in recombinant CHO(ORL1+) cells
Test: cell-based or functional assay

B1: synthetic heptadecapeptide Phe-Gly-Gly-Phe-Thr-Gly-Ala-Arg-Lys-Ser-Ala-Arg-Lys-Leu-Ala-Asn-Gln (nociceptin) (peptide)
peptide: FGGFTGARKSARKLANQ
inhibition of forskolin-induced accumulation of cAMP in recombinant CHO(ORL1+) cells, IC50: 0.9 nM

B2: 1Tyr analogue of the synthetic heptadecapeptide (peptide)
peptide: YGGFTGARKSARKLANQ
inhibition of forskolin-induced accumulation of cAMP in CHO cells expressing the receptor, IC50: 1 nM
